B1: FGF18: FGF activator; member of the FGF8 subfamily of secreted signaling proteins (protein, UniProt O76093 28-207, looked up)
Fibroblast growth factor 18: EENVDFRIHVENQTRARDDVSRKQLRLYQLYSRTSGKHIQVLGRRISARGEDGDKYAQLLVETDTFGSQVRIKGKETEFYLCMNRKGKLVGKPDGTSKECVFIEKVLENNYTALMSAKYSGWYVGFTKKGRPRKGPKTRENQQDVHFMKRYPKGQPELQKPFKYTTVTKRSRRIRPTHPA

Columns and labels:
[1] = system: rodent GSK3β homologs; details: cited from earlier work
[2] = system: stem-cell-derived midbrain DA neurons and precursors; experiment: Marker expression in stem-cell-derived mDA differentiation under Wnt-Boost protocol with added FGF; assay type: cell-based, human
Text: Midbrain DA neurons and precursors thereof were derived from stem cells under a Wnt-Boost protocol previously disclosed (the “7.5 M bump protocol (modification of GMP V2B)” protocol disclosed in International Publication No. WO 2016/196661, which is incorporated by reference in its entirety), which is referred to as “Wnt-Boost protocol” or “Boost protocol” hereinafter. It was discovered that EN1 expression was decreased starting from day 11 of the differentiation with Wnt-Boost protocol (see FIG. 1). Maintaining EN1 expression in the differentiated cells is important to generate mature and functional midbrain DA neurons. Thus, to maintain EN1 expression, the present example tested adding FGF8b treatment to the Wnt-Boost protocol at a late time of differentiation (see FIG. 2). Cells were contacted with FGF8b from day 9 to day 16, from day 10 to day 16, from day 11 to day 16, from day 12 to day 16, from day 13 to day 16, from day 14 to day 16, or from day 15 to day 16, in addition to the Wnt-Boost protocol, were tested. […] EN1 positive cells also expressed FOXA2 and LMX1A. […] SIX1 immuno-staining of the cells on day 30 of differentiation confirmed the mRNA results (see FIG. 5).
FGF8b, FGF17, and FGF18 were tested by being added them to the cell culture from day 12 to day 16 at a concentration of 100 ng/ml under the WNT-Boost protocol.

[3] = system: grafted NURR1:GFP sorted mDAs; experiment: Transplantation of NURR1:GFP sorted mDAs to immuno-deficient mice; assay type: in vivo, mouse
Text: (§1) These sorted cells were transplanted to immuno-deficient mice.

[4] = system: grafted differentiated cells in mouse; experiment: In vivo graft of differentiated cells (WNT-boost vs WNT-boost+FGF18) into intact mouse
Text: The in vivo survival of differentiated cells generated from WNT-boost+FGF18 protocol was examined. Cells generated from WNT-boost and WNT-boost+FGF18 protocols were grafted into intact mouse […].

[5] = system: NURR1:GFP hPSC derived mDAs; experiment: mRNA expression in NURR1:GFP sorted mDAs (WNT-Boost vs WNT-Boost+FGF18); assay type: cell-based, human; details: WNT-Boost+FGF18 (day 12-day 16) vs WNT-Boost
Experimental: NURR1:GFP hPSCs were then cultured under WNT-Boost and WNT-boost+FGF18 (day 12-day 16) protocols. NURR1:GFP positive cells were isolated on day 25 of differentiation followed by continuous culturing until day 40. On day 40 of differentiation, these midbrain DA neurons expressed high TH along with FOXA2 (see FIG. 12).
as §1

[6] = system: MEL1 hPSC derived CD49e weak mDAs; experiment: mRNA expression in CD49e sorted cells (WNT-Boost vs WNT-boost+FGF18); assay type: cell-based, human; details: WNT-boost+FGF18 (day 12-day 16) vs WNT-Boost
Experimental: CD49e marker was tested in another hPSC line MEL1 for purifying midbrain DA neuron. Substantially pure mDA morphology was discovered in cells sorted with CD49e (Negative and/or weak expression) on day 25 of differentiation and continuously cultured for another 15 days (day 40 of differentiation) under the WNT-boost protocol and the WNT-boost+FGF18 (day 12-day 16) protocol (see FIGS. 19-20). These sorted mDAs had high TH immune-staining (see FIG. 21).

| Molecule | IC50 values against rodent GSK3β homologs [1] | mRNA expression level of SMA ([2]; day 16 of differentiation, 100 ng/ml from day 12 to day 16, compared with FGF8b) | EN1 protein expression (immunostaining) ([2]; day 16 of differentiation, FGF added from day 9-15 to day 16 to Wnt-Boost protocol) | EN1 expression at the mature stage of differentiation ([2]; day 27 and day 40 (FIG. 8)) | expression levels of SMA1 and SIX1 ([2]; mature stage, FGF18 vs FGF8b treated cells) | expression level of PITX2 ([2]; mature stage, compared to cells differentiated by the WNT-Boost protocol) | neurite outgrowth from grafted region ([3]; FGF18 treated cells (WNT-Boost+FGF18 protocol) vs WNT-Boost) | cell survival of graft ([3]; sorted mDAs from WNT-Boost+FGF18 (day 12-day 16) protocol) | striatal innervation with fibers ([4]; 1 month post grafting, WNT-boost+FGF18 vs WNT-boost) | maintenance of EN1 expression in vivo ([4]; cells from WNT-boost+FGF18 protocol vs WNT-boost protocol, grafted) | mRNA expression level of EN1 [5] | mRNA expression level of EN1 [6] | mRNA expression level of PITX2 [6] |
| --- | --- | --- | --- | --- | --- | --- | --- | --- | --- | --- | --- | --- | --- |
| Cc1c[nH]c(-c2cnc(NCCNc3ccc(C#N)cn3)nc2-c2ccc(Cl)cc2Cl)n1 [CHIR99021, 6-(2-(4-(2,4-dichlorophenyl)-5-(4-methyl-1H-imidazol-2-yl)pyrimidin-2-ylamino)ethylamino)nicotinonitrile] | nanomolar | – | – | – | – | – | – | – | – | – | – | – | – |
| B1 | – | reduced mRNA expression level of SMA | highly maintained in a FGF18 contacting duration dependent manner | still highly maintained | less expression levels of SMA1 and SIX1 than FGF8b treated cells | reduced expression level of PITX2 | better neurite outgrowth from grafted region | excellent cell survival | better striatal innervation | improved maintenance of EN1 expression in vivo | higher expression level of EN1 | higher expression level of EN1 | lower expression level of PITX2 |
